From US9783615B2, “Combination treatment of cancer” (UNIVERSITÉ DE LIÈGE, priority 2012, dated 2017)
Numbering of substitutions follows the chain as printed. “Also recorded” adds a separate entry of the source. Each block holds one molecule with its values, some of them ahead of it.

Columns and labels:
[1] = tested on: MDA-MB231 cells expressing MT4-MMP; assay: In vitro 3D Matrigel proliferation assay with DNA quantification; format: cell-based, human; conditions: 7 days; for effect on MT4-MMP-mediated mitogenic effect (cell proliferation, DNA content): 3D Matrigel matrix, signaling pathway inhibitors added to the culture medium
Description: The medium was changed every three days.
Inhibition of MT4-MMP-dependent mitogenic effect of cancer cells was performed in 3D culture matrix. […] The medium was changed every three days.

[2] = tested on: MDA-MB 231 control (CTR) cells; conditions: 3D Matrigel matrix, 7 days
Description: Matrigel® mixed with an equal volume of culture medium was coated onto 24-well plates (300 μl/plate). Cells (104) suspended in 250 μl of medium were mixed with the same volume of cold Matrigel® and seeded on the previously coated Matrigel® layer. In some assays, growth factor-free Matrigel® was used (BD, Bioscience). For signaling pathway inhibition in the 3D culture model, cells were incubated in Matrigel® matrix and 24 h later several inhibitors were added to the culture medium at the indicated concentrations:
SB203580, Genistein, U0126, Wortmannin, PP2, SP600125, AG538 (Sigma), PD0332991 (Axon Medchem, Groningen, The Nederlands), MDL-12, GF109203x, AG1478 (Calbiochem, Gibbstown, N.J.). The medium was changed every three days. After 7 days, cells were recovered from 3D cultures upon treatment with 500 μl of Dispase (BD, Bioscience) for 2 h at 37° C. After two washes in PBS, cell pellet was diluted in PBS (1 ml) and sonicated.

[3] = molecular target: T1, active wild type recombinant MT4-MMP (Homo sapiens, UniProt Q9ULZ9); assay: Antibody specificity by Western blot; format: binding; conditions: scFV 1 μg/ml
T1 construct: made in house
T1 sequence (Q9ULZ9 126-565): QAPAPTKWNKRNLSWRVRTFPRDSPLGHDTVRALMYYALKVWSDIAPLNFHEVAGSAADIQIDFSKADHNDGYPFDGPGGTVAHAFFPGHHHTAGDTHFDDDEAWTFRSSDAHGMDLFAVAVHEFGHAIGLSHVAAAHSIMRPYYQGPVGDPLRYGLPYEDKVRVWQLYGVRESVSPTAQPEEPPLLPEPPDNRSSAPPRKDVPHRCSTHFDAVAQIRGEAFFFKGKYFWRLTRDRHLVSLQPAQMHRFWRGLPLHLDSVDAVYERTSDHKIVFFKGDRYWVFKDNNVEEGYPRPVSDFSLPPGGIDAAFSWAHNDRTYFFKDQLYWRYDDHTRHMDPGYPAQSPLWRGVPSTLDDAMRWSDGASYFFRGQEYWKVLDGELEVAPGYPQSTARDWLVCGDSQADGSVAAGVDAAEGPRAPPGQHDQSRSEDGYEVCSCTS
Description: (§1) In detail, antibody specificity was assessed by Western blot. Recombinant MT4-MMP (1 μg) was incubated with purified scFV clones (1 μg/ml) that contain a myc tag. Membranes were first incubated with a monoclonal mouse anti-myc antibody (clone 9E10, Sigma M5546) (1/1000) and then with HRP conjugated anti-mouse antibody (FIG. 14 A).

[4] = molecular target: T2, MT4-MMP inactivated by mutation in its catalytic site (E249A) (Homo sapiens, UniProt Q9ULZ9, E249A); assay: Antibody specificity by Western blot; format: binding; conditions: scFV 1 μg/ml
T2 sequence (Q9ULZ9 126-565 E249A): T1 sequence (Q9ULZ9 126-565) with E124A
Description: as §1

MT1-MMP (MMP14) = molecular target: T3, MT1-MMP (MMP14) (Homo sapiens, UniProt P50281); assay: Antibody specificity by Western blot; format: binding
T3 construct: but not to MT1-MMP, MT3-MMP and MMP 2 catalytic domains

MMP2 = assay: Antibody specificity by Western blot; format: binding
[5] = molecular target: T4, inactive mutated form of MT4-MMP (E249A) (Homo sapiens, UniProt Q9ULZ9, E249A); assay: Antibody specificity by ELISA; format: binding
T4 sequence (Q9ULZ9 126-565 E249A): T1 sequence (Q9ULZ9 126-565) with E124A
Source text: (§2) The specificity of K4H7 antibody evaluated by ELISA. […] BSA (column 2) and the absence of protein (column 1: blank) were used as control.

[6] = molecular target: T5, recombinant wild-type MT4-MMP (Homo sapiens, UniProt Q9ULZ9); assay: Antibody specificity by ELISA; format: binding; conditions: 3 μg protein
T5 construct: made in house
T5 sequence (Q9ULZ9 126-565): T1 sequence (Q9ULZ9 126-565)
Source text: as §2

MT3-MMP (MMP16) = molecular target: T6, MT3-MMP (MMP16) (Homo sapiens, UniProt P51512); assay: Antibody specificity by Western blot; format: binding
T6 construct: but not to MT1-MMP, MT3-MMP and MMP 2 catalytic domains
T6 sequence (P51512 120-291 limits assumed, species assumed): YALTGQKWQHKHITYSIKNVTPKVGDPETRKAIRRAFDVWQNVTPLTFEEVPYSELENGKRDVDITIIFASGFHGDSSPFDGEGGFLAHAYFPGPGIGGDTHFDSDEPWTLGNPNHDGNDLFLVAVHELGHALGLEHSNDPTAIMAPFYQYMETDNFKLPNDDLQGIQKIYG

[7] = molecular target: T7, recombinant catalytic domain of MT4-MMP (MT4CAT) (Homo sapiens, UniProt Q9ULZ9); assay: Inhibition of MT4-MMP enzymatic activity: cleavage of quenched fluorogenic peptide substrate (TACE substrate M-2255); format: biochemical; conditions: scFV clones at 14 nM; substrate 30 μM
T7 construct: Enzymatic activity of the recombinant catalytic domain of MT4-MMP (MT4CAT) was monitored
T7 sequence (Q9ULZ9 126-295 limits assumed): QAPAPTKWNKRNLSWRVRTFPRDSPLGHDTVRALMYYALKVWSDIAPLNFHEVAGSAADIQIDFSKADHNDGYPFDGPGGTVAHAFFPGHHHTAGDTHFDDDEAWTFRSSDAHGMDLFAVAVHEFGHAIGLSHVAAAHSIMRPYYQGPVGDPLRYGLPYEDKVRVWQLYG
Description: Inhibition of enzymatic activity of MT4-MMP was quantified by measuring the cleavage of quenched fluorogenic peptide substrate by the recombinant catalytic domain of MT4-MMP (MT4-CAT) in the presence or absence of MT4-MMP blocking antibodies (scFV). MT4-CAT (4.5 μM) was pre-incubated with MT4-MMP blocking antibodies (14 nM) for 30 min at 4° C. in buffer containing (50 mM Tris-HCl (pH 7.4); 5 mM CaCl2; ZnCl2 1 μM; 0.005%, Brij, 2% DMSO) before incubation with 30 μM of the fluorogenic substrate (pro-tumor necrosis factor-α converting enzyme (TACE) fluorogenic peptide substrate; Mca-(endo-1a-Dap(Dnp))-TNF-α (−5 to +6) amide (human), M-2255, Bachem AG, Switzerland).
Neutralizing capacity of antibodies. The enzymatic activity of the recombinant catalytic domain of MT4-MMP (MT4CAT) was monitored by the cleavage of quenched fluorogenic peptide substrate pro-tumor necrosis factor-α converting enzyme (TACE) (M-2255, BACHEM) and using Luminescence spectrometer (SPECTRA MAX; GIMINI). […] The cleavage of quenched fluorogenic peptide was monitored by measuring relative fluorescence units (RFU) during the incubation time (seconds) in the absence of inhibitor (MTCAT+No inhibitor) or in the presence of BB94 (20 μM) or of the scFV clones (14 nM). […]

[8] = molecular target: T8, recombinant MT4-CAT protein (Homo sapiens, UniProt Q9ULZ9); assay: Antibody affinity on immobilized protein in 96 well-plates (absorbance at 450 nm); format: binding; conditions: 0-3 μg of MT4-CAT per well
T8 construct: Enzymatic activity of the recombinant catalytic domain of MT4-MMP (MT4CAT) was monitored
T8 sequence (Q9ULZ9 126-295 limits assumed): T7 sequence (Q9ULZ9 126-295 limits assumed)
Description: For determining antibody affinity recombinant MT4-CAT protein and BSA (background) was immobilized on 96 well-plates [0-3 μg of MT4-CAT in 15 mM Na-bicarbonate (pH 9.6)/well] for 18 h, at +4° C. Non-specific blockage was carried out by incubation of 3% (w/v) BSA/PBS, 0.01% (v/v) Tween-20, for 1 h, at +4° C. The detection of the bound antibody was carried out with 1:2000 diluted mouse anti-myc antibody (clone 9E10, Sigma M5546) incubated for 1 h, at room temperature, followed by 15 min incubation with HRP-conjugated anti-mouse antibody. After adding TMB substrate, the absorbance was measured at 450 nm Multiskan FC (Thermo Scientific, Rockford, USA).

Molecule: N#CC(=C(/N)Sc1ccccc1N)/C(C#N)=C(\N)Sc1ccccc1N [U0126]
effect on MT4-MMP-mediated mitogenic effect (cell proliferation, DNA content) [1]: markedly inverted the proliferative phenotype
effect on proliferative rate in control cells [2]: without affecting the proliferative rate

Molecule: C#Cc1cccc(Nc2ncnc3cc(OCCOC)c(OCCOC)cc23)c1 [erlotinib]
inhibition of proliferation of cancer cells (DNA content) ([1]; single treatment 1 μM, 3D Matrigel): partially inhibited; also recorded: reduced cell proliferation

Molecule: O=c1c(-c2ccc(O)cc2)coc2cc(O)cc(O)c12 [genistein]
effect on MT4-MMP-mediated mitogenic effect (cell proliferation, DNA content) [1]: strongly inhibited

Molecule: COc1cc2ncnc(Nc3cccc(Cl)c3)c2cc1OC [AG1478]
effect on MT4-MMP-mediated mitogenic effect (cell proliferation, DNA content) [1]: significantly reduced

Molecule: CC(=O)c1c(C)c2cnc(Nc3ccc(N4CCNCC4)cn3)nc2n(C2CCCC2)c1=O [PD0332991]
effect on MT4-MMP-mediated mitogenic effect (cell proliferation, DNA content) [1]: inhibited

Molecule: N#C/C(=C\c1ccc(O)c(O)c1)C(=O)c1ccc(O)c(O)c1 [AG538]
effect on MT4-MMP-mediated mitogenic effect (cell proliferation, DNA content) [1]: No change

Molecule: CC(C)(C)n1nc(-c2ccc(Cl)cc2)c2c(N)ncnc21 [PP2, 4-amino-5-(4-chlorophenyl)-7-(t-butyl)pyrazol[3,4-d]pyrimidine]
effect on MT4-MMP-mediated mitogenic effect (cell proliferation, DNA content) [1]: No change

recognition of wild type recombinant MT4-MMP [3]: recognized specifically
recognition of MT4-MMP E249A mutant [4]: recognized specifically
recognition of MT1-MMP (MMP14) (MT1-MMP (MMP14)): do not recognize
binding to inactive MT4-MMP (E249A) [5]: binds specifically
binding to wild-type MT4-MMP [6]: binds specifically
recognition of MT3-MMP (MMP16) (MT3-MMP (MMP16)): do not recognize
B1: K4H7: human scFv antibody that specifically binds and neutralizes MT4-MMP; VH SEQ ID NO: 26, VL SEQ ID NO: 27, complete scFv SEQ ID NO: 28 (protein)
scFv: QVQLVQSGGGLVKPGRSLRLSCTASGFTFGDYAMSWFRQAPGKGLEWVGFIRSKAYGGTTEYAASVKGRFTISRDDSKSIAYLQMNSLKTEDTAVYYCTRGSSGWFLNWFDPWGQGTLVTVSSLEGGGGSGGGGSGGGGSELETTLTQSPATLSLSPGERATLSCRASQSISSSYLAWYQHKPGQAPRLLIYGASRRATGIPDRFSGSGSGTDFSLTISRLEPEDFAVYYCLHYGSSKWTFGQGTKVEIKR
recognition of MMP2 (MMP2): do not recognize
reduction of cell proliferation (DNA content) ([1]; single treatment 20 μg/ml, 3D Matrigel): reduced cell proliferation
inhibition of MT4-MMP enzymatic activity (neutralizing capacity) [7]: able to inhibit; also recorded: inhibited completely
affinity / capacity to bind recombinant MT4-MMP, compared among the three scFV clones [8]: highest capacity to bind; also recorded: highest affinity
